The record followed here is article PMC3431306 (2012).

Test [1] concerns the target CPSF6_(313–327) peptide (cleavage and polyadenylation specific factor 6, residues 313–327) (UniProt Q16630-2 313-327, N-terminal His tag omitted; strain not given, isolate Petaluma taken; CA residues 1-139 by alignment to HIV-1 CA 1-146). Put plainly: ITC.
The target in test [2] is CPSF6_(313–327) peptide (cleavage and polyadenylation specific factor 6, residues 313–327) (UniProt Q16630-2 313-327). Put plainly: ITC.

B1: FIV CA N-terminal domain (CA^N) (domain or fragment)
chain: PIQTVNGVPQYVALDPKMVSIFMEKAREGLGGEEVQLWFTAFSANLTPTDMATLIMAAPGCAADKEILDESLKQLTAEYDRTHPPDAPRPLPYFTAAEIMGIGLTQEQQAEARFAPARMQCRAWYLEALGKLAAIKAKS
In turn, B1 gave a Kd in test [1] of 242 µM.

B2: HIV-2 CA N-terminal domain (CA^N) (domain or fragment)
chain: not shown
Regarding B2, in test [2], the Kd turned out to be 350 µM.
